Test: yeast display, Sf9 membrane polyspecificity reagent, FACS + sequencing; frameworks hold sequencing errors
In short: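 Nanobodies from a synthetic yeast display library (Saccharomyces cerevisiae BJ5465), induced 36–48 hours with galactose, were stained 1 hour at 4 °C with 10% biotinylated, detergent-solubilized Sf9 membrane reagent, enriched on streptavidin microbeads, then FACS-sorted. Anti-HA (expression) and streptavidin (reagent binding) fluorescence set low and high (top ~1%) gates. Polyreactivity labels come from the gate of origin. Genes were colony-PCR amplified, MiSeq 2 × 250 sequenced and filtered by CDR length.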

QVQLVESGGGLVQAGGSLRLSCAASGLTIQRNDMGWYRQAPGKEREFVATITSNAGSTYYADSVKGRFTISRDNAKNTVYLQMNSLKPEDTAVYYCARERWWGDGYWGQGTQVTVSS
polyreactivity (PSR sort gate): high polyreactivity

QVQLVESGGGLVQAGGSLRLSCAASGLTIWANTKGWYRQAPGKERELVAAISLSDGSTYYADSVKGRFTISRDNAKNTVYVQMNSLKPEDTAVYYCAARVQHYLATDDYWGQGTQVTVSS
polyreactivity (PSR sort gate): low polyreactivity

QVQLVESGGGLVQAGGSLRLSCAASGLTIYHYAMGWYRQAPGKERELVAAISWNGGSTYYADSVKGRFTISRDNAKNTVYLQMNSLKPEDTAVYYCAVVFNPHRYTGVLAGYDYWGQGTQVTVSS
polyreactivity (PSR sort gate): high polyreactivity

QVQLVESGGGLVQAGGSLRLSCAASGLTLAWYAMGWYRQAPGKERELVAAISWSGDSTYYADSVKGRFTISRDNAKNTVYLQMNSLKPEDTEVYYCATRVYGGYGYWGQGTQVTVSS
polyreactivity (PSR sort gate): high polyreactivity

QVQLVESGGGLVQAGGSLRLSCAASGLTLEGYVMGWYRQAPGKERELVAAISRRGASTYYADSVKGRFTISRDNAKNTVYLQMNSLKTEDTAVYYCAAYGAYNNYRGQTSLGYGYDSWGQGTQVTVSS
polyreactivity (PSR sort gate): high polyreactivity

QVQLVESGGGLVQAGGSLRLSCAASGLTLGHNAMGWYRQAPGKERELVAAITNYADSVKGRFTISRDNAKNTVYLQMNSLKPEDTAVYYCAADWWRVEMDYWGQGTQVTVSS
polyreactivity (PSR sort gate): low polyreactivity

QVQLVESGGGLVQAGGSLRLSCAASGLTLQGYVMGWSRQAPGKERELVAAISTGGSTHYADSVKGRFTISRDNAKNTVYLQMNSLKPEDTAVYYCAAGWVLWFRDPQGRASYYWGQGTQVTVSS
polyreactivity (PSR sort gate): high polyreactivity

QVQLVESGGGLVQAGGSLRLSCAASGLTLRRYAMGWYIQAPGKERELVASINSGTSTKYADSVKGRFTISRDNAKNTVYLQMKSLKPEDTALYYCGAAVYFPTAGSRRAYYYWGQGTQGTVSS
polyreactivity (PSR sort gate): high polyreactivity

QVQLVESGGGLVQAGGSLRLSCAASGLTLRYYVMGWNSQAPGKERELVAAISSGGGSTYYADSVKGRFTISRDNAKNTVYLQMNSRKPEDTAVYYCAADSVSRYNGYDYWGQGTQVTVSS
polyreactivity (PSR sort gate): high polyreactivity

QVQLVESGGGLVQAGGSLRLSCAASGLTLSYNAMGWYRPAPGKERELVAAIRSGGSTNYADAVKGRFTISRDNANNTVYLQMNSLKPEDTAVYYCAARCRYLPYRDGRYQSGYEYWGQGTQVTVSS
polyreactivity (PSR sort gate): high polyreactivity

QVQLVESGGGLVQAGGSLRLSCAASGLTLTYYPMGLYRQAPGKERELVAAISSSGGSTYYADSVKGRFTISRDNAKNTVYLQMNSLKPEDSAVYDCAATRVSWTGRDDYWGQGTQVTVSS
polyreactivity (PSR sort gate): high polyreactivity

QVQLVESGGGLVQAGGSLRLSCAASGLTLYYYAMGWYRQAPGKERELVAAMSYSGGSTYYADSVKGRFTISRDNAKNPVYLQMNSVKPEDTAVYYCAAVGDSDIRDEYWGQGTQVTVSS
polyreactivity (PSR sort gate): low polyreactivity

QVQLVESGGGLVQAGGSLRLSCAASGLTSEGNAMGWYRQAPGKERELVAAIDYRGGSTYYADSVKGRFTISRDNAKNSVYLQMNSLKPEDTAVYYCAADYPRGYIDDGDYWGQGTQVTVSS
polyreactivity (PSR sort gate): low polyreactivity

QVQLVESGGGLVQAGGSLRLSCAASGLTSVSNAMGWYRPAPGKERELVAAISSRGGITYYADSVKGRFTISRDNAKNTVYLQMNSLKPEDTAVYYCAKKTVQRGYYYWGQGTQVTVSS
polyreactivity (PSR sort gate): high polyreactivity

QVQLVESGGGLVQAGGSLRLSCAASGLTSWYNAMGWYRQAPGKEREFVAAISFSGGRTFYADSVKGRFTISRDNAKKTVYLQMNSLKPEDTAGYYCNADVYGFDYWGQGTQVTVSS
polyreactivity (PSR sort gate): high polyreactivity

QVQLVESGGGLVQAGGSLRLSCAASGLTSYFYDMGWYRQAPGKERELVAAIRASAARTYYADTVKGRFTISRDNAKNTVYLQMNSLKPEDTAVYSCAARYGYWRQFRWKYDYWGHGTQVTVSS
polyreactivity (PSR sort gate): high polyreactivity

QVQLVESGGGLVQAGGSLRLSCAASGLTSYSYAMGWYRPAPGKERELVAAITVNGGRTYYADSVKGRFTISRDNAKNTVYLQMNSLKPEDTAVYYCAAREVTGRPRSYYYWGQGTQVTVSS
polyreactivity (PSR sort gate): low polyreactivity

QVQLVESGGGLVQAGGSLRLSCAASGMIFADYVMGWYRQAPGKERELVATINQGGGSTYYADSVKGRFTISRDNAKNTVYLQMNSLKPEDTAVYYCAATWALLYAIFESYDYWGQGTQVTVSS
polyreactivity (PSR sort gate): low polyreactivity

QVQLVESGGGLVQAGGSLRLSCAASGMIFFNYYAMGWYRQAPGKESELVAAIRYGGGSTYYADSVKGRFTISRDNGKNTVYLQMNSLKPEDTAVYYCAARFKGYYRYGYWGQGTQVTVSS
polyreactivity (PSR sort gate): high polyreactivity

QVQLVESGGGLVQAGGSLRLSCAASGMIFPGNTMGWYRQAPGKERELVAAITNGVSTNYADSVKGRFTISRDNAKNTVYLQMNSLKPEDTAVYYCNGPFNYVGGYSNYSGFVYWGQGTQVTVSS
polyreactivity (PSR sort gate): high polyreactivity

QVQLVESGGGLVQAGGSLRLSCAASGMIFVNAMGWYRQAPGKEREFVAAITYSTGSTYYADSVKGRFTISRDNAKNTVYLQMNSLKPEDTAVYYCAKDRSGHGTERDYWGQGTQVTVSS
polyreactivity (PSR sort gate): low polyreactivity

QVQLVESGGGLVQAGGSLRLSCAASGNAMGWYRQAPGKERELVAAITRRGGSTYYADSVKGRFTISRDNAKNTVYLQMNSLKPEDTAVYYCNADYAYYSYDYWGQGTQVTVSS
polyreactivity (PSR sort gate): low polyreactivity

QVQLVESGGGLVQAGGSLRLSCAASGNFFVLYAMGWYRQAPGKERELVASITSDGITYYADSGKGRFTISRDNAKNTVYLQMNSLKPEDTAVYYCAVDRSYRYLPRGDYWGQGTQVTVSS
polyreactivity (PSR sort gate): low polyreactivity

QVQLVESGGGLVQAGGSLRLSCAASGNIFAPNAMGWYRQAPGKERELVAAISRSGGSTHYADSVKGRFTISRDNAKNTVYLQMNSLKPEDTAVYYCAAGWYGRYTSKMGYWGQGTQVTVSS
polyreactivity (PSR sort gate): high polyreactivity

QVQLVESGGGLVQAGGSLRLSCAASGNIFAYYAMGWYRQAPGKERELVAAITDSGGNTFYADSVKGRFTISRDNAKNTVYLQMNSLKPEDTAVYYCAVRHRYTRAYWGRDYWGQGTQVTVSS
polyreactivity (PSR sort gate): low polyreactivity

QVQLVESGGGLVQAGGSLRLSCAASGNIFDEYTMGWYRQAPGKEREFVAGISDDGDTSYADSVKGRFTISRDNAKNTVYLQMNSLKPEDTAVYYCNADDLSYYESYWGFLYDYWGQGTQVTVSS
polyreactivity (PSR sort gate): low polyreactivity

QVQLVESGGGLVQAGGSLRLSCAASGNIFDGYAMGWYRQAPGKEREMVAAITSSAGSTYYADSVKGRFTISRDNAKNTVYLQMNSLKPEDTAVYYCNKVTKYRPIEGSWGQGTQVTVSS
polyreactivity (PSR sort gate): high polyreactivity

QVQLVESGGGLVQAGGSLRLSCAASGNIFDIYAMGRYRQAPGKERELVAAISSGGSTYYADSVKGRFTISRDNAKNTVYLQMNSLKPEDTAVYYCAESRVGYYRYEYWGQGTQVTVSS
polyreactivity (PSR sort gate): low polyreactivity

QVQLVESGGGLVQAGGSLRLSCAASGNIFDIYAMGWYRPAPGTERELVAAISSGGSTYYADSVKGRFTISRDNAKNTVYLQMNSLKPEDTAVYYCAESRVGYYRYEYWGQGTQVTVSS
polyreactivity (PSR sort gate): low polyreactivity

QVQLVESGGGLVQAGGSLRLSCAASGNIFDRYAMGWYRQAPGKERELVAGITWSGGSTYYADSVKGRFTISRDNAKNTVYLQMNSLKPEDTAVYYCGQANYYWGQGSQVTVSS
polyreactivity (PSR sort gate): low polyreactivity

QVQLVESGGGLVQAGGSLRLSCAASGNIFDRYVMGWYRQAPVKERELVAAISVSGGSTYYADSVKGRFTISRDNEKNSVYLQMNCLKPEDTAVYYCAAHSRLINWYDYWGQGTQVTVSS
polyreactivity (PSR sort gate): high polyreactivity

QVQLVESGGGLVQAGGSLRLSCAASGNIFFIYAMGWYRQAPGKERELVAAITSTGSTYYADSVKGRFTISRDNAKNTVYLQMNSLKPEDTAVYYCAALLQRRFAYDYWGQGTQVTVSS
polyreactivity (PSR sort gate): low polyreactivity

QVQLVESGGGLVQAGGSLRLSCAASGNIFFTYAMGWYRQAPGKERELVAAITSGGRTYYADSVKGRFTISRENPKNTFYLQMNSLKPEDTAVYYCASYYKYLGYGYWGQGTQVTVSS
polyreactivity (PSR sort gate): high polyreactivity

QVQLVESGGGLVQAGGSLRLSCAASGNIFFVYAMGWYRQAPGKERELVATITWRGDSTNYADSVKGRFTISRDNAKNTVYLQMNSLKPEDTAVYYCNAEDSYYTFEGDSWGQGTQVTVSS
polyreactivity (PSR sort gate): low polyreactivity

QVQLVESGGGLVQAGGSLRLSCAASGNIFGEYAMGWYRQAPGKERELVATISSGGDTYYADSVKGRFTISRDNAKNTVYLQMNSLKPEDTAVYYCAVVDTLYESKYDYWGQGTQVTVSS
polyreactivity (PSR sort gate): low polyreactivity

QVQLVESGGGLVQAGGSLRLSCAASGNIFGFYTMGWYRQAPGKERELVAAIRSRGGSTNYADSVKGRFTISRDNAKNTVYLQMNSLTPEDTAVYYCNKDGTWLARAVTYADFDYWGQGTQVTVSS
polyreactivity (PSR sort gate): low polyreactivity

QVQLVESGGGLVQAGGSLRLSCAASGNIFGGNAMGWYRQAPGKERELVAAITRGGSTYYADSVKGRFTISRDNAKNTVYLQMNSLTPEDTAVYYCAAQLFKWKNRQSLWFDHGYYWGQGTQLTVSS
polyreactivity (PSR sort gate): low polyreactivity

QVQLVESGGGLVQAGGSLRLSCAASGNIFGGYAMGWYRQAPGKERELVATIRDRGGSTYYADSVKGRFTISRDNAKNSVYLQMNSLKPEDTAVYYCNPRFRTYRLTMEYWGQGTQVTVSS
polyreactivity (PSR sort gate): high polyreactivity

QVQLVESGGGLVQAGGSLRLSCAASGNIFGNNAMGWYRPEPGKERELVAAISSSGTSTYYADSVKGRFTISLDNAKNTVYLQMNSLKPEDTAVYYCNADPLPYDGYYDYDYWGQGTQVTVSS
polyreactivity (PSR sort gate): low polyreactivity

QVQLVESGGGLVQAGGSLRLSCAASGNIFGNNAMGWYRQAPGKERELVAAISSSGTSTYYADSVKGRFTISRDNAKNTVYFQMNSLKPEDTAVYYCNADPLPYDGYYDYDYWGQGTQVTVSS
polyreactivity (PSR sort gate): low polyreactivity

QVQLVESGGGLVQAGGSLRLSCAASGNIFGPNAMGWYRQAPGKESELVAAISISGSTYYADSVKGRFTISRDNAKNTVYLQRNSLNPEDTAVYYCAADYDSDYSWKYNYWGQGTQVTVSS
polyreactivity (PSR sort gate): low polyreactivity

QVQLVESGGGLVQAGGSLRLSCAASGNIFGRYAMGWYRQAPGKARELVAAISGSGGRTYYADSVKGRFTISRYNAKKTVYLQMNSLKPEDTAVYYCAKVFALRGYDYWGQGTQVTVSS
polyreactivity (PSR sort gate): high polyreactivity

QVQLVESGGGLVQAGGSLRLSCAASGNIFGSNAMGWYRQAPGKERELVAAISGSNGGTYYADSVKGRFTISRDNAKNTVYLQMNSLKPEDTAVYYCNADFFSRWGYRYMDYWGQGTQVTVSS
polyreactivity (PSR sort gate): low polyreactivity
